Test results published in US20240189230A1, “PALM FOR THE TREATMENT OF CHEMOTHERAPY-INDUCED PERIPHERAL NEUROPATHY INCIDENTAL TO THE TREATMENT OF CANCER” (Peptinovo Biopharma Inc., priority 2019, published 2024).
Non-standard residues stand in square brackets, D forms with d. No end group written: not given here. Aib = CC(C)(N)C(=O)O

T1: human scavenger receptor class B, type 1 (SR-BI) (human, UniProt Q8WTV0 1-552)
T1 sequence (looked up): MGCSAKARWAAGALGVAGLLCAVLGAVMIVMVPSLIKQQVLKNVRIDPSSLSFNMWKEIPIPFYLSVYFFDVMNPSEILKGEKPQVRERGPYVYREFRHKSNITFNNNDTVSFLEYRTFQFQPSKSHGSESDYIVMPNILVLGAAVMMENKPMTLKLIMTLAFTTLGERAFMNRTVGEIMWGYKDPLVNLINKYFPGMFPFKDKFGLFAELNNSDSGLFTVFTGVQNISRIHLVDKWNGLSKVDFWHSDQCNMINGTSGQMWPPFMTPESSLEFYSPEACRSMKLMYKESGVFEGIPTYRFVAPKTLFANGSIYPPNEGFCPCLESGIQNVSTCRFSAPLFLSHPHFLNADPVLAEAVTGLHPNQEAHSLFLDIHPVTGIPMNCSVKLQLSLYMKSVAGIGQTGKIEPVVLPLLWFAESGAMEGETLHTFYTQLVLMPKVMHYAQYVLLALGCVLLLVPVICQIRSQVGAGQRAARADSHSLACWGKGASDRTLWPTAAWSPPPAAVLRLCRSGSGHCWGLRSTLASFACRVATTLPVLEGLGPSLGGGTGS


Tests used:
[1] = Stability of peptide/phospholipid complexes by visual inspection; format: physicochemical; settings: SM, PC/SM 70/30, SEQ ID No. 25: peptide to phospholipids 1/4
Method: Separate stock solutions of peptide and phospholipids were prepared in a solvent mixture composed of 80% tert-butyl alcohol (TBA) and 20% water to obtain separate solutions of 10 mM peptide, 20 mM 1,2-dioleoyl-sn-glycero-3-phosphocholine (DOPC) or 20 mM 1-palmitoyl-2-oleoyl-phosphatidylcholine (POPC) and 20 mM egg SM. […] The solutions were combined in a 1.5 ml glass vial, frozen (−70° C.), and lyophilized at −5 to −10° C. overnight. The resultant lyophilized cakes were rehydrated by addition of Dulbecco's phosphate buffered saline followed by gentle swirling of the contents. Formation of PALM was completed by incubating the PALM solution at 50° C. for 10 minutes. […] The qualities of the PALM preparations were evident in their appearance. A visually clear preparation indicated any nanoparticles that had formed were less than approximately 40 nm diameter, based on the Tyndall effect.

SR-BI = assay: DiI uptake from DiI-labeled PALM or HDL by BHK(SR-BI) cells, SR-BI induced or un-induced; format: cell-based, human; settings: for Un-induced DiI Uptake: un-induced BHK(SR-BI) cells
Method: A 40 μl aliquot of 10 mM peptide was combined with 56 μl of 20 mM POPC. 24 μl 20 mM SM(egg) and 16 μl 2.5 mM DiI in a small glass vial. The peptide and lipid solutions were prepared in 80% TBA/20% water. The DiI stock was prepared in 92% TBA/8% water. The combined solution was lyophilized and the resultant cake was rehydrated by addition of 0.2 ml of Dulbecco's phosphate buffered saline. The solution was briefly swirled, water bath sonicated (for approx. 15 sec.) and placed in a 50° C. heating block for 20 minutes.
SR-BI interaction studies are done with BHK(SR-BI) cells stably transfected with an inducible human SR-BI gene by means of the GeneSwitch™ System (Invitrogen) (Vickers et al. (2011) Nat. Cell Biol. 13:423-433) . The cells were plated (96-well plate) (8000 cells/well) in growth medium (Dulbecco's modified Eagle medium containing 10% fetal bovine serum) containing 200 μg/ml each of zeocin and hygromycin. After 24 hours incubation, the growth medium was removed and replaced with 0.2% bovine serum albumin in Dulbecco's modified Eagle medium. The medium of cells to be induced for SR-BI expression also contained 10 nM mifepristone, added from a DMSO stock solution. DMSO alone was added to the medium of uninduced cells. The induction medium was removed after 24 hours and replaced with medium containing DiI-labeled PALM (32 μg peptide/ml) or DiI-labeled HDL (19 μg protein/mL) (Kalen Biomedical, Montgomery Village, MD). The test media were prepared by diluting an aliquot of DiI-labeled PALM (Example 10) or the DiI-labeled HDL in 0.2% bovine serum albumin in Dulbecco's modified Eagle medium. The solutions were passed through 0.2 μm pore size, polyethersulfone, sterilization filters before use. The cells were incubated for 4 hours. Next, the cells were washed 3 times with 0.1% albumin in Dulbecco's phosphate buffered saline (with calcium and magnesium). The last wash was replaced with 200 μl/well of t-butanol/water (95%/5%). The covered plate was left to stand at room temp (20-21° C.) for 30 min with occasional shaking. The fluorescence in each well was detected at 520 nm excitation and 580 nm emission with a 550 nm cutoff filter on a […] Gemini fluorescence plate reader (FIG. 9).

[2] = target: human scavenger receptor class B, type 1 (SR-BI) (human) (UniProt Q8WTV0); assay: cell-based or functional assay
[3] = target: T1, human scavenger receptor class B, type …; assay: cell-based or functional assay
[4] = complex of the peptide with DOPC, C16PTX/PL 0
[5] = complex of the peptide with DOPC, C16PTX/PL 0.1
[6] = complex of the peptide with POPC, C16PTX/PL 0
[7] = complex of the peptide with POPC, C16PTX/PL 0.1
[8] = 4 hours, PALM prepared with the peptide 32 μg/ml, HDL 19 μg/ml, average (n = 4) ± SEM

| Molecule | Un-induced DiI Uptake (SR-BI; [8]) [pmol/µg/mL] | Increase Over Un-induced (DiI uptake, BHK(SR-BI) cells) [3] [%] | Induced DiI Uptake (pmol/ug/ml), BHK(SR-BI) cells induced for human SR-BI, 4 h [3] [pmol/µg/mL] | further results |
| --- | --- | --- | --- | --- |
| DV{AIB}QKFLELFNQLLEKWKQV (DV[Aib]QKFLELFNQLLEKWKQV) [SEQ ID NO: 32] | 0.28 ± 0.02 |  |  | Stability of Peptide/Phospholipid Complexes by Visual Inspection [1, 4]: Turbid; Stability of Peptide/Phospholipid Complexes by Visual Inspection [1, 5]: Turbid; Stability of Peptide/Phospholipid Complexes by Visual Inspection [1, 6]: Clear (A visually clear preparation indicated any nanoparticles that had formed were less than approximately 40 nm diameter); Stability of Peptide/Phospholipid Complexes by Visual Inspection [1, 7]: Turbid |
| DiI-labeled human HDL (Kalen Biomedical) (from UniProt P02647 25-267) |  |  |  | Increase Over Un-induced (DiI uptake, BHK(SR-BI) cells) [2]: 561%; Induced DiI Uptake (pmol/ug/ml), BHK(SR-BI) cells induced for human SR-BI, 4 h [2]: 0.86 pmol/µg/mL |
| DV{AIB}QKLFELFNQLLEKWKQV (DV[Aib]QKLFELFNQLLEKWKQV) [SEQ ID NO: 27] | 0.34 ± 0.01 |  |  | Stability of Peptide/Phospholipid Complexes by Visual Inspection [1, 4]: Turbid; Stability of Peptide/Phospholipid Complexes by Visual Inspection [1, 6]: Clear (A visually clear preparation indicated any nanoparticles that had formed were less than approximately 40 nm diameter); Stability of Peptide/Phospholipid Complexes by Visual Inspection [1, 7]: Turbid |
| DVFQKL{AIB}ELFNQLLEKWKQV (DVFQKL[Aib]ELFNQLLEKWKQV) [SEQ ID NO: 25] | 0.24 ± 0.01 |  |  | Stability of Peptide/Phospholipid Complexes by Visual Inspection [1, 4]: Clear (A visually clear preparation indicated any nanoparticles that had formed were less than approximately 40 nm diameter); Stability of Peptide/Phospholipid Complexes by Visual Inspection [1, 5]: Clear (A visually clear preparation indicated any nanoparticles that had formed were less than approximately 40 nm diameter); Stability of Peptide/Phospholipid Complexes by Visual Inspection [1, 6]: Clear (A visually clear preparation indicated any nanoparticles that had formed were less than approximately 40 nm diameter); Stability of Peptide/Phospholipid Complexes by Visual Inspection [1, 7]: Clear (A visually clear preparation indicated any nanoparticles that had formed were less than approximately 40 nm diameter) |
| DVFQKLVELFNQLLEKWKQV [SEQ ID NO: 26] | 0.49 ± 0.04 |  |  | Stability of Peptide/Phospholipid Complexes by Visual Inspection [1, 6]: Clear (A visually clear preparation indicated any nanoparticles that had formed were less than approximately 40 nm diameter); Stability of Peptide/Phospholipid Complexes by Visual Inspection [1, 7]: Turbid |
| DVFQ{AIB}LKELFNQLLEKWKQV (DVFQ[Aib]LKELFNQLLEKWKQV) [SEQ ID NO: 3] | 0.16 ± 0.01 |  |  |  |
| DVFQKL{AIB}ELFNQL{AIB}EKWKQV (DVFQKL[Aib]ELFNQL[Aib]EKWKQV) [SEQ ID NO: 35] | 0.35 ± 0.01 |  |  |  |
| HDL: high density lipoprotein, human, labeled with DiI (Kalen Biomedical) [reference compound] | 0.13 ± 0.02 |  |  | Induced DiI Uptake (SR-BI; SR-BI induced (10 nM mifepristone) BHK(SR-BI) cells, 4 hours, PALM prepared with the peptide 32 μg/ml, HDL 19 μg/ml, average (n = 4) ± SEM): 0.86 ± 0.03 pmol/µg/mL; Increase Over Un-induced (SR-BI; induced vs un-induced DiI uptake): 561% |
| DVFQ{AIB}LKELLNQLLEKFKQV (DVFQ[Aib]LKELLNQLLEKFKQV) [SEQ ID NO: 5] | 0.54 ± 0.03 |  |  |  |
| DVFQ[Aib]LKELLNQLLEKFKQV (also: formulated as DiI-labeled peptide amphiphile lipid micelle with POPC and egg sphingomyelin) [DiI-labeled PALM prepared with the peptide of SEQ ID NO: 5] |  | 73 | 0.93 |  |
| DVFQKL[Aib]ELFNQL[Aib]EKWKQV (also: formulated as DiI-labeled peptide amphiphile lipid micelle with POPC and egg sphingomyelin) [DiI-labeled PALM prepared with the peptide of SEQ ID NO: 35] |  | 264 | 1.26 |  |
| DVFQKL[Aib]ELFNQLLEKWKQV (also: formulated as DiI-labeled peptide amphiphile lipid micelle with POPC and egg sphingomyelin) [DiI-labeled PALM prepared with the peptide of SEQ ID NO: 25] |  | 245 | 0.83 |  |
| DVFQKLVELFNQLLEKWKQV (also: peptide amphiphile lipid micelle with POPC, egg sphingomyelin, DiI) [DiI-labeled PALM prepared with the peptide of SEQ ID NO: 26] |  | 65 | 0.81 |  |
| DV[Aib]QKLFELFNQLLEKWKQV (also: formulated as DiI-labeled peptide amphiphile lipid micelle with POPC and egg sphingomyelin) [DiI-labeled PALM prepared with the peptide of SEQ ID NO: 27] |  | 90 | 0.66 |  |
| DV[Aib]QKFLELFNQLLEKWKQV (also: formulated as DiI-labeled peptide amphiphile lipid micelle with POPC and egg sphingomyelin) [DiI-labeled PALM prepared with the peptide of SEQ ID NO: 32] |  | 221 | 0.9 |  |
| DVFQ[Aib]LKELFNQLLEKWKQV (also: formulated in a micelle with POPC, egg sphingomyelin and DiI) [DiI-labeled PALM prepared with the peptide of SEQ ID NO: 3] |  | 88 | 0.29 |  |
